The values that follow come from PMC4705923, “Structural Insights into the MMACHC-MMADHC Protein Complex Involved in Vitamin B12 Trafficking*” (The Journal of Biological Chemistry, 2015).

Assay [1] concerns the target T1, full-length human MMACHC (HsMMACHCFL) (human, UniProt Q9Y4U1 1-282).
T1 construct: human MMACHC, full length (C-terminal Pro-rich region is aa 236-282); source: E. coli BL21(DE3)R3, purified (Ni-Sepharose, Superdex 200)
T1 sequence (looked up): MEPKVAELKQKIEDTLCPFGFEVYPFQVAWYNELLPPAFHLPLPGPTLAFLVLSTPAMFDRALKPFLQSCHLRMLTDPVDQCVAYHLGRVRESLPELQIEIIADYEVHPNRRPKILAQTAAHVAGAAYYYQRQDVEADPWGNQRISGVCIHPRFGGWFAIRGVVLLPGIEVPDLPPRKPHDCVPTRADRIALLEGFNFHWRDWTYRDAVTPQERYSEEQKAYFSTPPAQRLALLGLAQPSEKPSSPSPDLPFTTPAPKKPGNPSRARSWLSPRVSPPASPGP
The assay is described as follows: native gel or EMSA; blue native-PAGE; 25 μM of each protein with 50 μM MeCbl and 8 mM GSH, preincubated in the dark at room temperature for 1 h; complex judged by an additional band. To be noted: both partners purified. (A gel shift assay detects complexes by their altered migration in electrophoresis.)

The target of the next assay is T2, untagged HsMMACHCΔC (human, UniProt Q9Y4U1 1-235).
T2 construct: human MMACHC lacking the C-terminal Pro-rich region (aa 236-282); Form used for SAXS; not shown: His6, N-terminal, cleaved
T2 sequence (looked up): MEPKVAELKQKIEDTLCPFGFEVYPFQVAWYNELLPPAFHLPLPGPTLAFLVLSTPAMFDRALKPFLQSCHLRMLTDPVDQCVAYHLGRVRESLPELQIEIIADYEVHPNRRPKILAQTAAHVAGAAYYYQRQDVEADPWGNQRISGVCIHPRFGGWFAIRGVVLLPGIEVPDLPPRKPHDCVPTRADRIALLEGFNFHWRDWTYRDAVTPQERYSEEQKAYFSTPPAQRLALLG
The assay is described as follows: SAXS; complex reconstituted from untagged proteins with MeCbl and GSH, purified by size-exclusion chromatography, 17 mg/ml; in-line HPLC column or batch mode; Diamond B21. As to conditions: both partners purified. Background: Size exclusion chromatography separates by hydrodynamic size, large species first.

For a further assay, the target named is T3, HsMMACHCΔC (human, UniProt Q9Y4U1 1-235).
T3 construct: human MMACHC lacking the C-terminal Pro-rich region (aa 236-282); Form used in BN-PAGE and size-exclusion chromatography; source: E. coli BL21(DE3)R3, purified (Ni-Sepharose, Superdex 200)
T3 sequence (looked up): T2 sequence (looked up)
The assay is described as follows: SEC; analytical size-exclusion chromatography of the two proteins with MeCbl and GSH; molecular weights from a calibration curve. As to conditions: both partners purified.

Assay [2] concerns the target T1, full-length human MMACHC (HsMMACHCFL). Put plainly: native MS; about 4 mg/ml MMADHC and MMACHC incubated with 0.5 mM MeCbl and 2 mM reduced GSH, desalted into 50 mM ammonium acetate pH 6.5; Q-TOF, electrospray, positive ion mode. As to conditions: both partners purified.
In assay [3] the target is T4, full-length human MMACHC (HsMMACHCFL) (human), Q9Y4U1.
T4 chain: T1 sequence (looked up)
Put plainly: native gel or EMSA; blue native-PAGE of single proteins, 25 μM; MMACHC alone and with MeCbl and GSH; MMADHC truncations alone. To be noted: remark: other sources report otherwise.

For orientation: stoichiometry N means a count of units in the complex or per binding partner.

Changes are numbered by the printed parent chain. Names may count otherwise.

B1: HsMMADHCΔ153 (domain or fragment, human, UniProt Q9H3L0 154-296, looked up)
chain: PELLRKDFESLFPEVANGKLMILTVTQKTKNDMTVWSEEVEIEREVLLEKFINGAKEICYALRAEGYWADFIDPSSGLAFFGPYTNNTLFETDERYRHLGFSVDDLGCCKVIRHSLWGTHVVVGSIFTNATPDSHIMKKLSGN
notes: source: E. coli BL21(DE3)R3, purified (Ni-Sepharose, Superdex 200)
For the molecule B1, the binding result in assay [1] is given as “binds”.

B2: untagged MmMMADHCΔ128 (domain or fragment, Mus musculus, UniProt Q99LS1 129-296, looked up)
chain: PVEQEINSAETYFESAKVECAIQTCPELLRRDFESLFPEVANSKLMILTVTQKTENDMTVWSEEVEVEREVLLEKFISGAKEICYALRAEGYWADFIDPSSGVAFFGPYTNNTLFETDERYRHLGFSVDDLGCCKVIRHSLWGTHVVVGSIFTNATADSSIMRKLSGN
notes: mouse MMADHC aa 129-296; Form used for SAXS; not shown: His6, N-terminal, cleaved
Turning to B2, the “stoichiometry N” value with untagged HsMMACHCΔC came to 1.

B3: MmMMADHCΔ128 (M. musculus MMADHC aa 129-296) (domain or fragment, Mus musculus, UniProt Q99LS1 129-296, looked up)
chain: B2 chain
notes: Form used in BN-PAGE and size-exclusion chromatography; source: E. coli BL21(DE3)R3, purified (Ni-Sepharose, Superdex 200)
On to B3, for which the “stoichiometry N” value with HsMMACHCΔC amounted to 1.

B4: HsMMADHCΔ123 (domain or fragment, human, UniProt Q9H3L0 124-296, looked up)
chain: QGNDAPVEQEINSAETYFESARVECAIQTCPELLRKDFESLFPEVANGKLMILTVTQKTKNDMTVWSEEVEIEREVLLEKFINGAKEICYALRAEGYWADFIDPSSGLAFFGPYTNNTLFETDERYRHLGFSVDDLGCCKVIRHSLWGTHVVVGSIFTNATPDSHIMKKLSGN
notes: human MMADHC (296 aa) with N-terminal truncation Δ123; source: E. coli BL21(DE3)R3, purified (Ni-Sepharose, Superdex 200)
Turning to B4, the “stoichiometry N” value in assay [2] came to 1.

B5: HsMMADHCΔ123-M186A (domain or fragment, human, UniProt Q9H3L0 124-296, looked up)
chain: B4 chain with M63A
notes: human MMADHC Δ123 construct with p.M186A (stretch 1); also called p.M186A; source: E. coli BL21(DE3)R3, purified (Ni-Sepharose, Superdex 200)
For the molecule B5, the binding result in assay [1] was “binds”.

B6: HsMMADHCΔ123-D226A (domain or fragment, human, UniProt Q9H3L0 124-296, looked up)
chain: B4 chain with D103A
notes: human MMADHC Δ123 construct with p.D226A (stretch 2); also called p.D226A; source: E. coli BL21(DE3)R3, purified (Ni-Sepharose, Superdex 200)
Turning to B6, the binding result in assay [1] is reported as “binds”.

B7: HsMMADHCΔ123-L259P (domain or fragment, human, UniProt Q9H3L0 124-296, looked up)
chain: B4 chain with L136P
notes: human MMADHC Δ123 construct with p.L259P (stretch 3); also called p.L259P; source: E. coli BL21(DE3)R3, purified (Ni-Sepharose, Superdex 200)
As for B7, the binding result in assay [1] is recorded as “binds”.

B8: full-length human MMACHC (HsMMACHCFL), Q9Y4U1 1-282 (natural protein)
chain: T1 sequence (looked up)
B8: in assay [3], the stoichiometry N was 2.

B9: HsMMADHCΔ61 (domain or fragment, human, UniProt Q9H3L0 62-296, looked up)
chain: MGPFGPQDQRFQLPGNIGFDCHLNGTASQKKSLVHKTLPDVLAEPLSSERHEFVMAQYVNEFQGNDAPVEQEINSAETYFESARVECAIQTCPELLRKDFESLFPEVANGKLMILTVTQKTKNDMTVWSEEVEIEREVLLEKFINGAKEICYALRAEGYWADFIDPSSGLAFFGPYTNNTLFETDERYRHLGFSVDDLGCCKVIRHSLWGTHVVVGSIFTNATPDSHIMKKLSGN
notes: human MMADHC (296 aa) with N-terminal truncation Δ61; by analogy with MmMMADHCΔ128 = aa 129-296; source: E. coli BL21(DE3)R3, purified (Ni-Sepharose, Superdex 200)
As to B9, the binding result in assay [1] was “binds”.
